Key:
[1] = biological target: recombinant SARS-CoV-2 spike receptor-binding domain (rRBD), Wuhan-Hu-1 isolate, residues 319-541 wi (SARS-CoV-2) (UniProt P0DTC2); experiment: SEC
[2] = biological target: recombinant SARS-CoV-2 spike receptor-binding domain (rRBD), Wuhan-Hu-1 isolate, residues 319-541 wi (SARS-CoV-2) (UniProt P0DTC2); experiment: non-reducing SDS-PAGE
[3] = biological target: recombinant SARS-CoV-2 spike receptor-binding domain (rRBD), Wuhan-Hu-1 isolate, residues 319-541 wi (SARS-CoV-2) (UniProt P0DTC2); experiment: non-reducing SDS-PAGE with western blot

With “recombinant SARS-CoV-2 spike receptor-binding domain (rRBD), Wuhan-Hu-1 isolate, residues 319-541 wi (from UniProt P0DTC2 319-541) (domain or fragment)” the stoichiometry N [1] was 2, the stoichiometry N [2] was 2 and the percent dimer of total rRBD (4 dpi) [3] was 17.9%. The stoichiometry N [3] was 2.
